# Data taken from PMC5311907, “ClickIn: a flexible protocol for quantifying mitochondrial uptake of nucleobase derivatives” (Interface Focus, 2017).
# System: isolated rat liver mitochondria
# Assay: ClickIn/MPP uptake experiment in isolated rat liver mitochondria (MALDI-TOF quantification of clicked, processed PNA 8)
# Type: in vitro ADME
# Protocol: Rat liver mitochondria were prepared by differential centrifugation as previously described, and diluted to a 20 mg protein ml^−1 concentration in STE buffer (250 mM sucrose, 5 mM Tris, 1 mM EGTA, pH 7.4) and stored for a maximum of 3 h on ice. Peptide–PNA 6 was dissolved at the indicated concentrations in 100 µl KCl buffer (120 mM KCl, 10 mM HEPES, 1 mM EGTA, 1 mM ADP, 1 mM MgCl2, 1 mM KPi, 0.05% BSA, pH 7.4) supplemented with 10 mM potassium succinate, 4 µg ml^−1 rotenone and 10 µM MitoOct. Where indicated carbonyl cyanide-4-(trifluoromethoxy)phenylhydrazone (FCCP, 500 nM) was added to the buffer. The buffer was warmed for 5 min at 37°C after which the reaction was initiated by addition of 5 µl mitochondria suspension (100 µg protein). The mitochondria were incubated for 1 h at 37°C, after which the reaction was stopped by the addition of 3-phenyl-1,2,4,5-tetrazine (PhTet, 50 µM). The mitochondria were pelleted by centrifugation at 16 000g for 1 min, and supernatant was removed. Next 100 µl 20% acetonitrile solution with 0.1% formic acid, 50 µM PhTet and 0.1 µM internal standard 5 was added to the pellet. The pellet was suspended by three cycles of freezing in solid CO2 (5 min) and sonication in a Grant XB2 ultrasonic bath. The obtained solution was centrifuged at 16 000g for 10 min. The sample was spotted onto an MALDI-plate using the bottom-layer method. Matrix (0.75 µl, 50% acetonitrile, 5 mg ml^−1 α-cyano-4-hydroxycinnamic acid, 10 mM dibasic ammonium citrate, 0.1% TFA) was spotted on the plate and 0.75 µl sample was mixed in. The spot was left to dry at room temperature, after which another layer of 0.75 µl of matrix was added. In total, 20 spectra with 10 shots each were collected per spot, using a minimum intensity of 1000 and a maximum of 10 000 as selection criterion, averages were taken of three spots per experiment. All experiments were performed in triplicate using different mitochondrial preparations and are presented as averages ±s.e.m.
# Isolated rat liver mitochondria were incubated with various concentrations of peptide (0.1–10 µM) in import buffer, in the presence of MitoOct, for 1 h at 37°C. As previously described, the reaction was stopped by addition of PhTET and centrifugation. The pellet was extracted (20% acetonitrile, 0.1% formic acid, 50 µM PhTet, 0.1 μM 5) and analysed by MALDI-TOF (figure 3 and electronic supplementary material, S1). […] This is consistent with FCCP not only inhibiting the ClickIn reaction, but also inhibiting the processing of COX8-PNA-click by stopping import of 6. The absence of signal in the presence of FCCP is striking (figure 3 and electronic supplementary material, S1), and enables the qualitative observation of PNA uptake in isolated mitochondria. […] It is interesting to note that, even though the MPP is known to cleave after the 25th residue of the COX8 pre-sequence, we see no evidence of the four amino acids, IHSL, predicted to remain at the N-terminal of our cleaved product. Our previous unpublished results have shown a very minor amount of the PNA product still carrying leucine at the N-terminal but not any of the remaining amino acids. It is likely that these residues are removed by a protease residing in the mitochondrial matrix.
substance,measurement,setting,value
COX8-Cys-Ac-GTCA-Lys(N3)-NH2 [compound 6],formation of product 8 in the presence of FCCP (uncoupled membrane potential),"as the uptake experiment, plus FCCP 500 nM, all added concentrations of 6 (0.1–10 µM), 1 h at 37°C, MALDI-TOF",no product 8 could be observed
same,formation of clicked PNA (product 8) as measure of mitochondrial matrix import,"isolated rat liver mitochondria (100 µg protein) in 100 µl KCl buffer pH 7.4, 10 mM succinate, 4 µg/ml rotenone, 10 µM MitoOct, 0.1–10 µM 6, 1 h at 37°C, stopped with 50 µM PhTet, pellet extract, MALDI-TOF with 0.1 µM internal standard 5, triplicate, different mitochondrial preparations",Significant amounts of clicked PNA were observed in all samples
same,concentration dependence of the ClickIn/MPP reaction (quantified 8),"isolated rat liver mitochondria, 10 µM MitoOct, 1 h at 37°C, MALDI-TOF with internal standard 5, figure 3c, averages ± s.e.m., triplicate",typical dose–response curve for concentrations of 6 up to 5 µM
same,cleaved but not clicked 6 seen in mass spectra,"isolated rat liver mitochondria, 10 µM MitoOct, 1 h at 37°C, MALDI-TOF, without FCCP, not observed in the presence of FCCP",small amounts of cleaved but not clicked 6
same,toxic effect on the mitochondria,"isolated rat liver mitochondria, concentrations of 6 higher than 5 µM, inferred from the dose–response curve",might have a toxic effect on the mitochondria
